Test results as given in patent publication US20260159591A1.

Experiments:
[1] = target: murine ITGA11 expressed in CHO cells (murine) (UniProt P61622); assay: flow cytometry, 34 nM antibody on CHO cells expressing murine ITGA11
[2] = target: human ITGA11 expressed in mouse C2C12 cells (human) (UniProt Q9UKX5); assay: flow cytometry, 34 nM antibody on C2C12 cells expressing human ITGA11
human ITGA11 expressed in mouse C2C12 cells (human), sequence (Q9UKX5 23-1188): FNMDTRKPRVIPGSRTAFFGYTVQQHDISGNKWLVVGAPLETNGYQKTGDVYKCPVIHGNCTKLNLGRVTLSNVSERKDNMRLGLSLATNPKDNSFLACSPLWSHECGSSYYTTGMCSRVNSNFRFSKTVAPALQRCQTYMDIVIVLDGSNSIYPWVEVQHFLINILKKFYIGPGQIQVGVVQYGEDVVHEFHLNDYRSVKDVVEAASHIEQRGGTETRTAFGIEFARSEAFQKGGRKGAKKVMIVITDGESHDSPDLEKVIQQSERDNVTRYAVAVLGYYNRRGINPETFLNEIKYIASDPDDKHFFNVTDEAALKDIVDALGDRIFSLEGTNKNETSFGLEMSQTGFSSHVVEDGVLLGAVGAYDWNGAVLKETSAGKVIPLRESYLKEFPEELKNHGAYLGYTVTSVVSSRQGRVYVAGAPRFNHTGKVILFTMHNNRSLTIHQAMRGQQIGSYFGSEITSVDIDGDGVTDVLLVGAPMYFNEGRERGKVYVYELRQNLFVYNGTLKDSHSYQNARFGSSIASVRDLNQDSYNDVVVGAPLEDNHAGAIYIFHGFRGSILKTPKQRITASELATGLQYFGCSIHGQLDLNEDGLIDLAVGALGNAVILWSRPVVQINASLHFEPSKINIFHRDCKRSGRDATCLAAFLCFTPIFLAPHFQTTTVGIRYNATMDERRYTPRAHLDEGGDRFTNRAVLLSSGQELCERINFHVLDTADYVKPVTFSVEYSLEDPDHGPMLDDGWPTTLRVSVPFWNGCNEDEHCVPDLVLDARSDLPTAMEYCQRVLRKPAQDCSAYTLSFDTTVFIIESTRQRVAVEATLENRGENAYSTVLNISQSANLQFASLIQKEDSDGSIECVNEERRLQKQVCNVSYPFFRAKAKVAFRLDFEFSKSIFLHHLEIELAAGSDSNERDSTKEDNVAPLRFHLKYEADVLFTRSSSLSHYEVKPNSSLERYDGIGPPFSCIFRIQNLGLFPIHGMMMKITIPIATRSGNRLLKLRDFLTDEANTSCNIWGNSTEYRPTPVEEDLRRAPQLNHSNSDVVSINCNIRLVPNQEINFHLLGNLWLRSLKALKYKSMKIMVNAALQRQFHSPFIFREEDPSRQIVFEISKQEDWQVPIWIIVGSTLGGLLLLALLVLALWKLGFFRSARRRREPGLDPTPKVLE

murine ITGA11 expressed in CHO cells (murine), sequence (P61622 23-1188): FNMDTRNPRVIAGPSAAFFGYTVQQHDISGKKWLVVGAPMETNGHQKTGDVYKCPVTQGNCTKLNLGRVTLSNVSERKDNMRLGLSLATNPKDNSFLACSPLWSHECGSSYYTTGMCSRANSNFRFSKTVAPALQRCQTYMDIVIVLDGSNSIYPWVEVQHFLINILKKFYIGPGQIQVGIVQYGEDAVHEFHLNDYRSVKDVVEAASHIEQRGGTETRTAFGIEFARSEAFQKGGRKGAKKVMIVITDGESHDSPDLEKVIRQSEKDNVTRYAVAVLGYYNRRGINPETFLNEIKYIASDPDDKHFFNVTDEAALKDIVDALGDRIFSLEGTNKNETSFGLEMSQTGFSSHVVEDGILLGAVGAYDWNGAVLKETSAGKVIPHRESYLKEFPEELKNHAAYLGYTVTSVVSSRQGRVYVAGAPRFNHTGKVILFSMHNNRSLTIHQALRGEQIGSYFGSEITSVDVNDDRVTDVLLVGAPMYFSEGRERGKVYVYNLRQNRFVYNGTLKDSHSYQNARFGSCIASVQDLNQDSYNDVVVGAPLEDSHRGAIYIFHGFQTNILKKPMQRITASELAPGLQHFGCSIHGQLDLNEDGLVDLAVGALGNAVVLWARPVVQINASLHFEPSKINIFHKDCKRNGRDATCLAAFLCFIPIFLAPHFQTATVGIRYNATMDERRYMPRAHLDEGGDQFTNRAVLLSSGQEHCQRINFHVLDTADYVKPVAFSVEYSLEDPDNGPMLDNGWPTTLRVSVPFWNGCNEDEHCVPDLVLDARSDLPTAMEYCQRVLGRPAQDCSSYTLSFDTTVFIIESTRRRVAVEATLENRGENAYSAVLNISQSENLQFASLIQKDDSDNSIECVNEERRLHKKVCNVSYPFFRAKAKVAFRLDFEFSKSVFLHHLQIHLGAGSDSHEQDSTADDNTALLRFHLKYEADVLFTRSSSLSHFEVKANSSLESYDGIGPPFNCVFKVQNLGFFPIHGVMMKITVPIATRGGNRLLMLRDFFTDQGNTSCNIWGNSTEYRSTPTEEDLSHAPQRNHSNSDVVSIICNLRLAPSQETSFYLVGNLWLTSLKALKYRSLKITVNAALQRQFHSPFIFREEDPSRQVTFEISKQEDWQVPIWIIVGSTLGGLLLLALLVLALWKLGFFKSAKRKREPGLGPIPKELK

- MFI [1]: 513 MFI
- MFI [2]: 557 MFI
Substance: Control IgG4 (antibody)
